Test results: article PMC8145246 (Toxins, 2021)

B1: MazE-mt1 α3 peptide (Thr42-Gly58) (peptide)
peptide: TLEDDYANAWQEWSAAG
B2: MazF-mt1 toxin (M. tb), purified protein (enzyme)
chain: MMRRGEIWQVDLDPARGSEANNQRPAVVVSNDRANATATRLGRGVITVVPVTSNIAKVYPFQVLLSATTTGLQVDCKAQAEQIRSIATERLLRPIGRVSAAELAQLDEALKLHLDLWS

Key:
[1] = molecular target: B2; assay: crystal structure; conditions: both partners purified
[2] = molecular target: the molecule itself; assay: crystal structure

Binder	binding result [1]	binding result [2]
B1	binds	–
B2	–	binds
